Measurements reported in patent US20060121042A1 (AstraZeneca / MedImmune, published 2006).

What was measured:
Experiment in all cases: ELISA
mEph A7 = target: T1, mEph A7 (mouse, UniProt Q61772)
T1 sequence (receptor, looked up): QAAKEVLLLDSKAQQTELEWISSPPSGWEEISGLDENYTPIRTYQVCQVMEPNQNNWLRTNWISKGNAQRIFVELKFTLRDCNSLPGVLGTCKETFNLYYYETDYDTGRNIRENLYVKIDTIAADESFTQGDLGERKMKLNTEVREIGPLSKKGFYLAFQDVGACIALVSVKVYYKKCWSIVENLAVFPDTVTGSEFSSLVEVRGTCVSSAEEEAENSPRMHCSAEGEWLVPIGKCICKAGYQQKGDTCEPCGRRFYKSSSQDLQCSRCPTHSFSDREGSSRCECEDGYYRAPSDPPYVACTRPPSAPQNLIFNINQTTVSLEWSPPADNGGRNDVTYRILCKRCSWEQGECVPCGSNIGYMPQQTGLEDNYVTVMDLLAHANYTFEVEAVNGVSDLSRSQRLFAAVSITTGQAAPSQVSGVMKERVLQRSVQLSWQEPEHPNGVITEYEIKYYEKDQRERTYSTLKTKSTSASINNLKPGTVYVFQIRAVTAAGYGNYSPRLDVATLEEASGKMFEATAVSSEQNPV

mEph A3 = target: T2, mEph A3 (mouse, UniProt P29319)
T2 sequence (receptor, looked up): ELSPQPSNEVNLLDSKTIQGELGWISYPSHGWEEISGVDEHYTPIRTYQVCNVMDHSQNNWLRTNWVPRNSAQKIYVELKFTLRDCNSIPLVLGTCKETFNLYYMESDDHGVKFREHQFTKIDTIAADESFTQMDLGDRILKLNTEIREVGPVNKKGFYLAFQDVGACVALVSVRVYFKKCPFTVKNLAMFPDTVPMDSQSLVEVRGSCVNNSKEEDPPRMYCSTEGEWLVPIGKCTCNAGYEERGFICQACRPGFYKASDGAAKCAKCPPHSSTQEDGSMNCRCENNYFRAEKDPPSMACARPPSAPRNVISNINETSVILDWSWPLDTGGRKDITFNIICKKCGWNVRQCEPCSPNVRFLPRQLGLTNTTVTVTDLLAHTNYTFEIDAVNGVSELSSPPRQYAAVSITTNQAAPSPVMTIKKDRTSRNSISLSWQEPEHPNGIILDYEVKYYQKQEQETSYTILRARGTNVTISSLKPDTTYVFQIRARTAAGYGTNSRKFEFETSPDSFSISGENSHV

[1] = target: T3, human EphA4 (construct not given) (human, UniProt P54764 20-547, limits assumed)
T3 construct: also called EphA4 receptor
T3 sequence (P54764 20-547 limits assumed): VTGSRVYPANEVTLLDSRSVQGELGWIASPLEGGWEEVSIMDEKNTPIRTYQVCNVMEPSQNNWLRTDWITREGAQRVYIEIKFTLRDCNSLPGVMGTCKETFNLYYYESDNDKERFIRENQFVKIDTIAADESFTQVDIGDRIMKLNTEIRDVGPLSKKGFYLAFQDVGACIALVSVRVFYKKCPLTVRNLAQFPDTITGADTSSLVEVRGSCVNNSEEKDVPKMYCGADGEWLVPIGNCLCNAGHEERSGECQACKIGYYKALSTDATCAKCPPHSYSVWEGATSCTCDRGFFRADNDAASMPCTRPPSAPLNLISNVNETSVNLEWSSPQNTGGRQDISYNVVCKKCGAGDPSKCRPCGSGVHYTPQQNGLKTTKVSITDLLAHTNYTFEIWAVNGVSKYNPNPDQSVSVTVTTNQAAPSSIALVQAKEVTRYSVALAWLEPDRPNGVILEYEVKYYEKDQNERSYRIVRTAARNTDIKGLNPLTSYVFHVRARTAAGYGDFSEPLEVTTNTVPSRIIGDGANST

mEph A4 = mEph A4 (mouse, UniProt Q03137)
mEph A4, sequence (Q03137 20-547 limits assumed): as the sequence (P54764 20-547 limits assumed) above, with P59A, N121S, V124G, R250Q, S251N, T270S, K378R, N406S counted along it

rmEph B3 = target: T4, rmEph B3 (mouse, UniProt P54754)
T4 sequence (receptor, looked up): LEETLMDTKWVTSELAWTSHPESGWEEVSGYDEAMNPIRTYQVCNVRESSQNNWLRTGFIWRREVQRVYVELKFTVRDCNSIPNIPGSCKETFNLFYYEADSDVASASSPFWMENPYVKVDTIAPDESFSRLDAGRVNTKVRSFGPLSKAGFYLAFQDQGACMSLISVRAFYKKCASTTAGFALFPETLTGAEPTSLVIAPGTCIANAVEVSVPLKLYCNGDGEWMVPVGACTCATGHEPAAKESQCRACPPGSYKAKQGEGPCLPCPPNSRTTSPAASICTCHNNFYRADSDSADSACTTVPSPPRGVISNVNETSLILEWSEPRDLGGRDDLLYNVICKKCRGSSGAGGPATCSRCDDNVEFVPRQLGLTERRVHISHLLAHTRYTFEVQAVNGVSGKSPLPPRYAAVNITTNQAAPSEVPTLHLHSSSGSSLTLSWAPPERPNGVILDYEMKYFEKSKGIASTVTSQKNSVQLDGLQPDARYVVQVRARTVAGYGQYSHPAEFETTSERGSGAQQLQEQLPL

rmEph B2 = target: T5, rmEph B2 (mouse, UniProt P54763)
T5 sequence (receptor, looked up): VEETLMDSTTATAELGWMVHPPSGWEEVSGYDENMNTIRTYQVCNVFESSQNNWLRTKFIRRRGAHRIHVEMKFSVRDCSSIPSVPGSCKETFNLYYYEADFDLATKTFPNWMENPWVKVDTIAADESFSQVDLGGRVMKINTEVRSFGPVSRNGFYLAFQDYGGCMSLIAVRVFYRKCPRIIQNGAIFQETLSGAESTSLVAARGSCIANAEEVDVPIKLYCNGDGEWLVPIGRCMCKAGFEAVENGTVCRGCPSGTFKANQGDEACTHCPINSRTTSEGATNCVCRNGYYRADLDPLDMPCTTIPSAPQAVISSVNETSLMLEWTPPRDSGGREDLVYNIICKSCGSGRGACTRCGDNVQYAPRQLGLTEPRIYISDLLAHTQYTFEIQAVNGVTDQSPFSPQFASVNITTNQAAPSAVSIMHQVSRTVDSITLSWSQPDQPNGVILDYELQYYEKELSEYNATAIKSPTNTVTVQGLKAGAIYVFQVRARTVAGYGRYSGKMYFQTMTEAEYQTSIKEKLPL

rrEphB1 = target: T6, rrEphB1 (rat, UniProt P09759)
T6 sequence (receptor, looked up): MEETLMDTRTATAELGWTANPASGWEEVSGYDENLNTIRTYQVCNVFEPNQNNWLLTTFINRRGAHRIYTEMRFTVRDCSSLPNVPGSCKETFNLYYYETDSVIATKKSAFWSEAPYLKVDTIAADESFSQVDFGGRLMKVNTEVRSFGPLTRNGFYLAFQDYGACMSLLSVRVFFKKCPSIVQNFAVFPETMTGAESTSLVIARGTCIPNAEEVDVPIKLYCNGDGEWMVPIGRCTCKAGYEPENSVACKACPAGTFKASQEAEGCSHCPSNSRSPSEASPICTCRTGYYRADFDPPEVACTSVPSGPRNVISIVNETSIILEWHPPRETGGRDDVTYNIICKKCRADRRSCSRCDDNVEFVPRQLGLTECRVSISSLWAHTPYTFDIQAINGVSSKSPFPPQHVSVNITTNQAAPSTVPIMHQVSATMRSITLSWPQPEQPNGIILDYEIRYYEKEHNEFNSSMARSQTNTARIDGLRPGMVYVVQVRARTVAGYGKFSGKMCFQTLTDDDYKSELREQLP
Note: test concentration or dose not given here.

B1: GEA10-C12 (antibody, V domains shown)
VH: QVQLQESGPGLVKPSGTLSLTCAVSGGSISSSNWWSWVRQPPGKGLEWIGEIYHSGSTNYNPSLKSRVTISVDKSKNQFSLKLSSVTAADTAVYYCARGGIAAAGYWGLGYNWFDPWGQGTLVTVSS
VL: QSVLTQPPSVSGAPGQRVTISCTGSSSNIGAGYDVHWYQQLPGTAPKLLIYGNSNRPSGVPDRFSGSKSGTSASLAITGLQAEDEADYYCQSYDNSLSGSVVFGGGTKLTVL
ELISA O.D. value (mEph A7): 0.132
ELISA O.D. value (mEph A3): 0.116
ELISA O.D. value [1]: 0.267
ELISA O.D. value (mEph A4): 0.253
ELISA O.D. value (rmEph B3): 0.377
ELISA O.D. value (rmEph B2): 0.264
ELISA O.D. value (rrEphB1): 0.823
